Test results from the supplement of paper PMC10126150.
± gives the standard deviation of the averaged measurements.

Tested on: ATP
Assay: switch fluorescence ratio, 500 uM ATP over buffer (Cy3 cluster intensity, sum of 5 cycles each) (fold (ratio)); higher = stronger signal-on switching upon ATP binding; sequences stand for … in TCGTCGGCAGCGTCAGATGTGTATAAGAGACAGTTTTTTTTTTTTTTTTTTTTTTTTT…TC
Settings: aptamer strand: ATP DNA aptamer (quencher-CACCTGGGGGAGTATTGCGGAGGAAGG + anchor), 100 nM annealed; ATP concentration: 500 uM
Procedure, shortened: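 Between each of five buffer/ATP cycles, the flow-cell was stripped with NaOH and re-annealed. Each cycle imaged Cy3-labelled switching-strand clusters, annealed to 100 nM quencher-labelled ATP aptamer on a modified Illumina MiSeq flow-cell, first in selection buffer and then after 15 min with 500 uM ATP at 22 °C. The fluorescence ratio is summed target-cycle over summed buffer-cycle Cy3 intensity per cluster, averaged per switch-domain sequence, with clusters outside 100-1000 RFU excluded.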
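Also: ATP exposure 15 min at 22 °C before imaging.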

Point of comparison: TAAAGGAGGT, switch fluorescence ratio 1.01 ± 0.046. Against it:
- ACCGCGGTGT — the same, 1.007 ± 0.0052
- TTGTTATGTA — within error, 0.982 ± 0.026
- CGGATCGGAT — within error, 0.976 ± 0.04
- GCGCAAGGGG — the same, 1.01 ± 0.015
- ATTGTGAAAT — within error, 0.999 ± 0.0025
- AAGTCGTCGA — within error, 1.028 ± 0.0025
- GCGCAAAATT — within error, 0.9973 ± 0.0046
- TGGCGTAGTT — within error, 0.991 ± 0.037
- TTTATGTTT — within error, 0.984 ± 0.019
- ACCATGGGAA — within error, 1.04 ± 0.022
- AGACTACTAC — higher, 1.12 ± 0.025
- GATCGGAGGG — the same, 1.01 ± 0.027
- GTGGCGTGGA — within error, 0.991 ± 0.021
- ATGATTGGAT — within error, 0.996 ± 0.029
- GAAGCAAAGG — higher, 2.04 ± 0.074
- AGAAAAAAGC — within error, 0.989 ± 0.015
- AAAGGTACGT — within error, 0.987 ± 0.021
- TTTCTTGCCA — within error, 1.02 ± 0.048
- CATTGGACGT — within error, 1.029 ± 0.0063
- AGTTGGGTGT — the same, 1.01 ± 0.013
- TTAATGATGG — the same, 1.012 ± 0.0075
- GGATCGGGCG — within error, 0.973 ± 0.051
- GTGGACAGGC — within error, 1 ± 0.02
- AGTAAAGTCT — within error, 1.04 ± 0.035
- GGCATTATAG — within error, 0.999 ± 0.0097
- AATGAGGGGT — within error, 0.966 ± 0.031
- TTGTGTGATT — within error, 1.02 ± 0.038
- TTTTCGCTTT — within error, 1.09 ± 0.17
- CGCAGTCTGT — higher, 1.12 ± 0.012
- TCGACGTTTG — the same, 1.01 ± 0.011
- CATCTAGGGC — within error, 1.04 ± 0.028
- CCTTTTTTTG — the same, 1.01 ± 0.024
- GCCTGTACTT — within error, 0.9883 ± 0.0046
- TTGTGAGGGG — within error, 0.988 ± 0.022
- CATGTTGCGA — within error, 1.04 ± 0.023
- TTTTTACGGT — within error, 1.1 ± 0.15
- CAGGGGTATT — within error, 1.32 ± 0.42
- AAGTTGGCGC — the same, 1.01 ± 0.037
- TCAATGGGAA — within error, 0.967 ± 0.026
- ATAAACGGGG — within error, 0.9917 ± 0.001
- TCGCTTTGCT — within error, 1.31 ± 0.42
- CGTCCGGTG — higher, 1.78 ± 0.65
- TTAGGGGTGG — within error, 0.996 ± 0.032
- TATTACGAAA — higher, 1.1 ± 0.032
- TCCTCCGTGG — higher, 2.56 ± 0.59
- AGATCGGATA — the same, 1.01 ± 0.024
- GCGAGTCTCA — the same, 1.007 ± 0.01
- TTAAGAAAAG — within error, 1.1 ± 0.065
- AAATTTAGCT — within error, 1.0313 ± 0.0006
- TAGCTCATTA — within error, 0.979 ± 0.019
- CCCCAGGAAT — higher, 1.24 ± 0.027
- GTTTCGGGGG — within error, 0.9895 ± 0.006
- TAAGGGGTGG — within error, 0.969 ± 0.028
- TAACGGCGGT — within error, 0.978 ± 0.021
- GCGAGAAGAG — within error, 1.003 ± 0.0092
- ATGTGTGAAA — within error, 1 ± 0.073
- CAAACTGGCA — within error, 1.05 ± 0.045
- TTGGGTCGGA — within error, 0.992 ± 0.029
- CGACAGGCAT — higher, 1.63 ± 0.063
- AGAGGGTTTG — within error, 0.998 ± 0.025
- TTTAATATGT — within error, 0.968 ± 0.024
- TTTATTCTGT — within error, 1 ± 0.022
- ATGTGGTGCA — within error, 1.02 ± 0.0034
- GGGAAGTGAG — the same, 1.013 ± 0.006
- TATGAAGACG — higher, 1.12 ± 0.064
- TCGGTACGG — within error, 1.07 ± 0.017
- ATCTCGGATT — within error, 0.9869 ± 0.0041
- TTTGCCCCTT — within error, 1.02 ± 0.03
- AAAGGGCGCA — within error, 1.02 ± 0.017
- TTTGAACGGG — the same, 1.01 ± 0.036
- GTTTGGGTTA — the same, 1.01 ± 0.016
- TCTGAAAGTG — within error, 0.989 ± 0.059
- CGATCCTTTT — within error, 1.05 ± 0.029
- TTACGGTTGC — within error, 0.9665 ± 0.0024
- TATTTTTAGG — within error, 1 ± 0.032
- GGGTATATAG — within error, 1.02 ± 0.036
- GAGTTATGGG — within error, 0.9963 ± 0.0048
- GCTTCCTCTA — within error, 1.74 ± 1
- GATATGGGTA — within error, 1.02 ± 0.035
- GAAAATGAAG — the same, 1.01 ± 0.031
- TCGTGTAAAC — within error, 0.981 ± 0.028
- ATGCGAGCAA — higher, 1.11 ± 0.019
- AGATGTCAGC — within error, 0.9708 ± 0.0063
- GACGTCAGCG — within error, 1.05 ± 0.059
- GAGAGCAAAT — within error, 1.09 ± 0.048
- TCGGCTATGA — within error, 1.03 ± 0.021
- GGCATATCGT — within error, 0.949 ± 0.041
- CTCGCGGGTG — within error, 1.14 ± 0.11
- TTTGCAGT — within error, 1.1 ± 0.12
- ATAATTTAGG — within error, 0.9859 ± 0.0029
- AATGTGCAAA — the same, 1.01 ± 0.022
- GAAAAAGGTG — higher, 1.1 ± 0.028
- CAAGCTATCA — within error, 1.026 ± 0.002
- TTGCGAGTTG — within error, 1 ± 0.021
- TTGGAATTCA — within error, 1.02 ± 0.071
- CTAAATAATA — within error, 0.992 ± 0.027
- GGCGGGACGA — within error, 0.973 ± 0.036
- ATAATTTTTT — within error, 1.03 ± 0.063
- CGTTTAGGAC — within error, 1.1 ± 0.21
- TCCATAGTCG — within error, 1.03 ± 0.014
- TAGGTAACCG — within error, 0.943 ± 0.056
- ACGGTTTAAC — higher, 1.105 ± 0.005
- AAAACAGTT — within error, 1.05 ± 0.02
- TTCCACCAAA — within error, 1.07 ± 0.033
- GGGAAAGAAC — within error, 1.15 ± 0.2
- TAAATCGGGA — within error, 0.9928 ± 0.0037
- TTCGAGTTGG — within error, 0.9772 ± 0.0027
- CTGGTATAGG — within error, 0.977 ± 0.028
- GTTGGATTTC — the same, 1.01 ± 0.047
- TGAGGGGGG — the same, 1.01 ± 0.022
- TAGAAAAGGC — within error, 1.15 ± 0.21
- TTGAAATATT — within error, 1.02 ± 0.013
- GGGGATTTAT — within error, 0.997 ± 0.019
- ATCATGCGGC — within error, 0.983 ± 0.014
- CGTGGAAGGA — within error, 0.997 ± 0.038
- GGAAGCGACA — within error, 0.988 ± 0.037
- TTCGTTTATT — the same, 1.01 ± 0.046
- CGTGTTTTAT — within error, 0.998 ± 0.039
- ATGGTTAGTG — within error, 0.975 ± 0.011
- GGGTCAGGGG — within error, 1.09 ± 0.077
- TTGATATGGA — within error, 0.98 ± 0.022
- GATTCACGA — within error, 0.984 ± 0.015
- TGTGAGTTTG — within error, 1.03 ± 0.013
- ACAGTTGGCC — within error, 1.02 ± 0.021
- TAAAAAATAC — within error, 1.67 ± 0.74
- AAGTTTGGGA — within error, 1.07 ± 0.091
- TGAAAGTTTG — the same, 1.01 ± 0.026
- TGAGTGCTGG — within error, 0.9741 ± 0.0017
- CTTTGCCTGG — within error, 0.98 ± 0.026
- TTGATGCTCT — within error, 1.21 ± 0.28
- CGGTAAGGCG — within error, 0.947 ± 0.11
- ACCTCACTTT — higher, 1.303 ± 0.005
- GGGGTACTTT — within error, 0.991 ± 0.026
- TGAAATTGTG — the same, 1.01 ± 0.022
- GATCAACTGT — within error, 1 ± 0.032
- TATGTTTCTA — within error, 1.0004 ± 0.00054
- CCATAAGAAT — the same, 1.01 ± 0.038
- AGTGAGTCGT — within error, 0.961 ± 0.035
- GTGTCAACGT — within error, 0.978 ± 0.017
- CCAATAGAGT — within error, 0.997 ± 0.046
- TATACGGGTG — higher, 1.073 ± 0.0046
- TTGTTGGTGC — higher, 1.09 ± 0.014
- CTAGATCGGT — within error, 0.982 ± 0.051
- GTGGGGTACA — within error, 0.996 ± 0.049
- TGGGTTTCTG — within error, 1.02 ± 0.021
- ATTACGTGTA — the same, 1.012 ± 0.0039
- GGGATCGAGG — the same, 1.01 ± 0.035
- TGCGTTCGTC — within error, 0.993 ± 0.015
- GTAAAATAGA — the same, 1.01 ± 0.034
- CCTGAGGGAC — within error, 0.99 ± 0.03
- CTTCCACGGT — higher, 1.21 ± 0.12
- ACAATTGGAG — within error, 0.9969 ± 0.0044
- TTTAGGTCTA — within error, 0.978 ± 0.019
- ATCCCCATGG — higher, 1.91 ± 0.051
- TTAGGACTTG — within error, 0.985 ± 0.015
- AATTTAAGGC — within error, 0.985 ± 0.078
- GGAGGATGCT — within error, 0.948 ± 0.053
- TTCGTTATGT — within error, 0.98 ± 0.027
- GATGTAATCT — within error, 1.02 ± 0.025
- ATTAAGGGGT — within error, 1.07 ± 0.12
- ATGGGGCTGT — within error, 0.979 ± 0.034
- GGCATATGTA — within error, 0.9829 ± 0.0076
- TGTGTAGGGG — within error, 1.04 ± 0.079
- TAAGAAAAAT — within error, 1.062 ± 0.0081
- TATTGGAGTG — within error, 0.966 ± 0.084
- ATTTTAGGCC — within error, 1.1 ± 0.06
- TTTGGTTATA — within error, 1 ± 0.012
- ATGGCGGACG — within error, 0.981 ± 0.05
- TAACGTTTTT — higher, 1.1 ± 0.024
- ATATCCTCCC — higher, 1.35 ± 0.016
- GGGTCCATCT — within error, 1 ± 0.013
- GGGGGAGGT — within error, 0.986 ± 0.038
- TATTAACTAG — within error, 1.02 ± 0.0022
- ACCGTTAGGT — within error, 0.951 ± 0.037
- GGCAGGGGAA — the same, 1.01 ± 0.012
- TATATTTCTG — within error, 0.986 ± 0.019
- ACTGCAAAAT — higher, 1.127 ± 0.0017
- CATAAAAGAT — the same, 1.01 ± 0.017
- CAGAAATTAG — within error, 1.005 ± 0.0024
- CCGACCAGGG — higher, 1.3 ± 0.13
- GTGAGGCCGC — higher, 1.0626 ± 0.001
- AGGTCGTTTT — within error, 0.991 ± 0.027
- ACGGGTGAGC — higher, 1.09 ± 0.011
- TTGAAATTT — within error, 1.001 ± 0.003
- TGCAGTCTGT — within error, 0.988 ± 0.034
- CATATTCAAT — within error, 1 ± 0.015
- CCAGAGGGGT — within error, 1.04 ± 0.02
- GTCTGAGGCT — within error, 0.9853 ± 0.0076
- ATTTAATAAT — within error, 0.985 ± 0.018
- TCATACGGGG — the same, 1.01 ± 0.023
- TGGAGCGCCG — the same, 1.01 ± 0.028
- TTGAGAATAC — within error, 1.62 ± 0.68
- AGGGCTTAGA — within error, 0.9905 ± 0.0033
- GCAGGAATTC — within error, 1.05 ± 0.042
- ACGATGGCTG — within error, 1.04 ± 0.015
- AGGTATGGCC — within error, 1.04 ± 0.091
- CGGGATTATG — the same, 1.01 ± 0.052
- GAAATACGGT — within error, 1.19 ± 0.17
- TGGTGGTAGG — within error, 0.984 ± 0.063
